From the supplement of paper PMC10567573

B1: KIAA1161 (parent)
chain: FMPAMQFSIPPWRYDAEVVAIAQK
B2: DVL3 (parent)
chain: FCADNPSELPPPMERTGGIGDSRP

Variants of: B1
Assay: protein stability index of a GFP-peptide fusion (GPS, HEK-293T) (PSI 1-6); higher = more stable
Details: c terminus: a fixed tail appended
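Further: lentivirally expressed fusions sorted by FACS into six bins by GFP to DsRed ratio, PSI derived from sequencing read proportions per bin multiplied by bin number.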

| Variant | protein stability index |
| --- | --- |
| FMPAMQPSIPPWRYDAEVVAIAQK | 2.08 |
| FMPAMQDSIPPWRYDAEVVAIAQK | 2.9 |
| FMPAMQFSAPPWRYDAEVVAIAQK | 2 |
| FMPAMQFSIPPWRYDAYVVAIAQK | 2.45 |
| FMPAMQFSIPPWRYDAIVVAIAQK | 1.52 |
| FMPAMQFSIPPWRYDTEVVAIAQK | 3.04 |
| FMPAMQFSIPPWRFDAEVVAIAQK | 1.63 |
| FMPAMQFSIPPWRKDAEVVAIAQK | 2.08 |
| FMPALQFSIPPWRYDAEVVAIAQK | 2.25 |
| FMPAYQFSIPPWRYDAEVVAIAQK | 1.77 |
| FMPAMQFSIPPCRYDAEVVAIAQK | 1.73 |
| FMPAMQFSIPCWRYDAEVVAIAQK | 1.79 |
| FMPAMQFSIPPWRYDAEVTAIAQK | 2.21 |
| FMPAMQFSIPPWRYDAEVPAIAQK | 4.1 |
| FMPAMQFSIPPWRYDAEWVAIAQK | 3.22 |
| FMPAMQFSIPPWRYDAEVVAIAQH | 2.54 |
| FMPTMQFSIPPWRYDAEVVAIAQK | 1.76 |
| FMPHMQFSIPPWRYDAEVVAIAQK | 2.68 |
| FMPAMQFSIPPWFYDAEVVAIAQK | 1.1 |
| FMPAMQFSIPPWRYDAEVVAIAKK | 2.2 |
| FMVAMQFSIPPWRYDAEVVAIAQK | 2.33 |

Variants of: B2
Assay: as above
Details: c terminus: a fixed tail appended

| Variant | protein stability index |
| --- | --- |
| FLADNPSELPPPMERTGGIGDSRP | 5 |
| FRADNPSELPPPMERTGGIGDSRP | 4.58 |
| FYADNPSELPPPMERTGGIGDSRP | 4.75 |
| FDADNPSELPPPMERTGGIGDSRP | 5.46 |
| FHADNPSELPPPMERTGGIGDSRP | 4.36 |
| FPADNPSELPPPMERTGGIGDSRP | 4.73 |
| FFADNPSELPPPMERTGGIGDSRP | 4.31 |
| FVADNPSELPPPMERTGGIGDSRP | 3.27 |
| FKADNPSELPPPMERTGGIGDSRP | 4.68 |
| FNADNPSELPPPMERTGGIGDSRP | 4.43 |
| FMADNPSELPPPMERTGGIGDSRP | 4.71 |
| FAADNPSELPPPMERTGGIGDSRP | 4.77 |
| FSADNPSELPPPMERTGGIGDSRP | 5 |
| FIADNPSELPPPMERTGGIGDSRP | 4.71 |
| FGADNPSELPPPMERTGGIGDSRP | 4.83 |
| FTADNPSELPPPMERTGGIGDSRP | 5.06 |
| FWADNPSELPPPMERTGGIGDSRP | 3.44 |
| FCHDNPSELPPPMERTGGIGDSRP | 4.37 |
| FCCDNPSELPPPMERTGGIGDSRP | 4.13 |
| FCWDNPSELPPPMERTGGIGDSRP | 3.64 |
| FCIDNPSELPPPMERTGGIGDSRP | 4.25 |
| FCDDNPSELPPPMERTGGIGDSRP | 5.11 |
| FCTDNPSELPPPMERTGGIGDSRP | 4.29 |
| FCEDNPSELPPPMERTGGIGDSRP | 5.23 |
| FCSDNPSELPPPMERTGGIGDSRP | 4.81 |

| Variant | protein stability index |
| --- | --- |
| FCMDNPSELPPPMERTGGIGDSRP | 4.48 |
| FCPDNPSELPPPMERTGGIGDSRP | 4.17 |
| FCVDNPSELPPPMERTGGIGDSRP | 4.78 |
| FCKDNPSELPPPMERTGGIGDSRP | 4.34 |
| FCNDNPSELPPPMERTGGIGDSRP | 4.79 |
| FCFDNPSELPPPMERTGGIGDSRP | 3.56 |
| FCQDNPSELPPPMERTGGIGDSRP | 3.45 |
| FCYDNPSELPPPMERTGGIGDSRP | 4.49 |
| FCADNPSEQPPPMERTGGIGDSRP | 4.16 |
| FCADNPSEMPPPMERTGGIGDSRP | 4.34 |
| FCADNPSEHPPPMERTGGIGDSRP | 4.66 |
| FCADNPSEFPPPMERTGGIGDSRP | 4.44 |
| FCADNPSESPPPMERTGGIGDSRP | 4.99 |
| FCADNPSEKPPPMERTGGIGDSRP | 4.66 |
| FCADNPSEVPPPMERTGGIGDSRP | 4.82 |
| FCADNPSECPPPMERTGGIGDSRP | 4.79 |
| FCADNPSEYPPPMERTGGIGDSRP | 4.11 |
| FCADNPSENPPPMERTGGIGDSRP | 5.1 |
| FCADNPSERPPPMERTGGIGDSRP | 4.32 |
| FCADNPSEIPPPMERTGGIGDSRP | 4.53 |
| FCADNPSEEPPPMERTGGIGDSRP | 5.34 |
| QCADNPSELPPPMERTGGIGDSRP | 4.83 |
| NCADNPSELPPPMERTGGIGDSRP | 5.58 |
| HCADNPSELPPPMERTGGIGDSRP | 5.25 |
| DCADNPSELPPPMERTGGIGDSRP | 5.43 |

| Variant | protein stability index |
| --- | --- |
| WCADNPSELPPPMERTGGIGDSRP | 4.26 |
| CCADNPSELPPPMERTGGIGDSRP | 3.99 |
| RCADNPSELPPPMERTGGIGDSRP | 4.68 |
| VCADNPSELPPPMERTGGIGDSRP | 5.18 |
| ACADNPSELPPPMERTGGIGDSRP | 5.49 |
| MCADNPSELPPPMERTGGIGDSRP | 3.45 |
| GCADNPSELPPPMERTGGIGDSRP | 5.33 |
| ICADNPSELPPPMERTGGIGDSRP | 5.05 |
| KCADNPSELPPPMERTGGIGDSRP | 4.86 |
| PCADNPSELPPPMERTGGIGDSRP | 5.44 |
| ECADNPSELPPPMERTGGIGDSRP | 5.12 |
| LCADNPSELPPPMERTGGIGDSRP | 4.63 |
| TCADNPSELPPPMERTGGIGDSRP | 4.99 |
| SCADNPSELPPPMERTGGIGDSRP | 4.94 |
| YCADNPSELPPPMERTGGIGDSRP | 4.89 |
| FCADNPSFLPPPMERTGGIGDSRP | 2.6 |
| FCADNPSGLPPPMERTGGIGDSRP | 4.37 |
| FCADNPSYLPPPMERTGGIGDSRP | 3.25 |
| FCADNPSRLPPPMERTGGIGDSRP | 3.05 |
| FCADNPSPLPPPMERTGGIGDSRP | 4.14 |
| FCADNPSTLPPPMERTGGIGDSRP | 4.02 |
| FCADNPSWLPPPMERTGGIGDSRP | 2.03 |
| FCADNPSSLPPPMERTGGIGDSRP | 4.63 |
